Experimental data: the supplement of paper PMC7877785
± gives the uncertainty stated by the source.

Assay: self-splicing fitness, log relative to wild type (ln ratio); higher = more splicing; Tetrahymena group I intron in knt gene, E. coli kanamycin selection, DiMSum; sequences stand for … in CUCUCU…GGAGGGAAAAGUUAUCAGGCAUGCACCUGGUAGCUAGUCUUUAAACCAAUAGAUUGCAUCGGUUUAAAAGGCAAGACCGUCAAAUUGCGGGAAAGGGGUCAACAGCCGUUCAGUACCAAGUCUCAGGGGAAACUUUGAGAUGGCCUUGCAAAGGGUAUGGUAAUAAGCUGACGGACAUGGUCCUAACCACGCAGCCAAGUCCUAAGUCAACAGAUCUUCUGUUGAUAUGGAUGCAGUUCACAGACUAAAUGUCGGUCGGGGAAGAUGUAUUCUUCUCAUAAGAUAUAGUCGGACCUCUCCUUAAUGGGAGCUAGCGGAUGAAGUGAUGCAACACUGGAGCCGCUGGGAACUAAUUUGUAUGCGAAAGUAUAUUGAUUAGUUUUGGAGUACUCGUGGUCG
Method in brief: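 DiMSum derived fitness as the error-weighted combination of fold changes across replicates, kanamycin versus no kanamycin, normalised to wild type. E. coli BL21(DE3) held the library, which randomised all eight P1ex-region intron nucleotides within the knt kanamycin-resistance gene on pET-22b(+). Six replicate transformations grew overnight at 37°C or 30°C on LB agar with or without 25 μg/mL kanamycin, also containing 100 μg/mL carbenicillin, 50 μM IPTG and 0.2% rhamnose, and pooled colonies were amplicon-sequenced on an Illumina HiSeq 2500.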

| Sequence | self-splicing fitness (ln) (30 °C) | self-splicing fitness (ln) (37 °C) |
| --- | --- | --- |
| UUCAAGCAAUAUUACGUAGG | -1.53 ± 0.08 | -0.995 ± 0.13 |
| GGAAAGCAAUAUUACGAAAC | -1.37 ± 0.13 | -0.659 ± 0.17 |
| CAAUAGCAAUAUUACGACGU | -2.06 ± 0.11 | -0.956 ± 0.11 |
| CAUUAGCAAUAUUACGAUAC | -3.07 ± 0.47 | -2.23 ± 0.43 |
| CCAAAGCAAUAUUACGUCGU | -3.82 ± 0.19 | -2.75 ± 0.23 |
| AUAUAGCAAUAUUACGGCAC | -2 ± 0.24 | 0.951 ± 0.25 |
| CCUUAGCAAUAUUACGUGGA | -4.29 ± 0.34 | -2 ± 0.2 |
| UCAGAGCAAUAUUACGGGAG | -2.82 ± 0.21 | -2.14 ± 0.34 |
| CACUAGCAAUAUUACGUCCC | -2.5 ± 0.34 | -2.38 ± 0.33 |
| GCAGAGCAAUAUUACGGAUA | -1.48 ± 0.32 | -2.92 ± 0.4 |
| GGCGAGCAAUAUUACGCAAA | -2.13 ± 0.19 | -2.01 ± 0.14 |
| UAAUAGCAAUAUUACGUAGU | -3.82 ± 0.19 | -2.44 ± 0.23 |
| ACUCAGCAAUAUUACGAAUA | -1.99 ± 0.14 | -0.941 ± 0.15 |
| AGCGAGCAAUAUUACGGUGC | -4.03 ± 0.28 | -2.97 ± 0.24 |
| UUUAAGCAAUAUUACGAUGA | 0.318 ± 0.13 | -0.175 ± 0.14 |
| CUUCAGCAAUAUUACGGGGC | -2.93 ± 0.22 | -2.21 ± 0.34 |
| CUUGAGCAAUAUUACGCGUA | -3.18 ± 0.35 | -2.31 ± 0.27 |
| UGUAAGCAAUAUUACGAUAU | -3.01 ± 0.3 | -0.86 ± 0.24 |
| UCGGAGCAAUAUUACGAAAU | -3.14 ± 0.49 | – |
| AGAUAGCAAUAUUACGCUCC | – | 0.0911 ± 0.49 |
| ACCUAGCAAUAUUACGCUAA | -2.61 ± 0.23 | -1.32 ± 0.16 |
| CUGUAGCAAUAUUACGAUCU | -3.56 ± 0.26 | -2.05 ± 0.29 |
| AAUUAGCAAUAUUACGUGGC | -3.39 ± 0.2 | -1.96 ± 0.24 |
| CUGCAGCAAUAUUACGGUUG | -1.02 ± 0.13 | -1.83 ± 0.19 |
| UGUAAGCAAUAUUACGCAUG | -1.95 ± 0.099 | 0.308 ± 0.14 |

| Sequence | self-splicing fitness (ln) (30 °C) | self-splicing fitness (ln) (37 °C) |
| --- | --- | --- |
| GCUUAGCAAUAUUACGACUG | -1.67 ± 0.1 | -0.937 ± 0.11 |
| AUCGAGCAAUAUUACGUCGU | -2.19 ± 0.13 | -1.2 ± 0.14 |
| CGGAAGCAAUAUUACGUAAU | -2.35 ± 0.19 | -1.23 ± 0.19 |
| ACCAAGCAAUAUUACGGUGG | -4.89 ± 0.21 | -2.53 ± 0.14 |
| CGUAAGCAAUAUUACGGUCA | -2.2 ± 0.15 | -0.467 ± 0.12 |
| GACUAGCAAUAUUACGUGGG | -3.35 ± 0.13 | -1.96 ± 0.098 |
| CGGAAGCAAUAUUACGUUAA | -3.47 ± 0.36 | -3.06 ± 0.25 |
| CUUUAGCAAUAUUACGUUUU | -3.27 ± 0.3 | -2.39 ± 0.35 |
| UUAGAGCAAUAUUACGGCUC | -3.52 ± 0.35 | -1.68 ± 0.28 |
| CCUGAGCAAUAUUACGUUAA | -2.92 ± 0.24 | -2.52 ± 0.26 |
| UCUGAGCAAUAUUACGCGGC | -4.16 ± 0.47 | -3.58 ± 0.33 |
| GGCAAGCAAUAUUACGGAAU | -0.693 ± 0.075 | -0.506 ± 0.1 |
| AUGUAGCAAUAUUACGAAGC | -3.22 ± 0.37 | 0.239 ± 0.23 |
| AAUCAGCAAUAUUACGAAAA | -1.45 ± 0.092 | -0.169 ± 0.1 |
| UAGAAGCAAUAUUACGGAUC | -2.24 ± 0.12 | -1.49 ± 0.17 |
| GAUUAGCAAUAUUACGGACG | -0.885 ± 0.19 | 0.241 ± 0.16 |
| GUUCAGCAAUAUUACGCGUA | -0.404 ± 0.12 | -0.287 ± 0.15 |
| GUGAAGCAAUAUUACGGCUU | -4.92 ± 0.36 | -3.3 ± 0.26 |
| UGUCAGCAAUAUUACGUCGU | -1.49 ± 0.1 | -0.759 ± 0.11 |
| AUAUAGCAAUAUUACGUGAU | -1.4 ± 0.092 | -0.895 ± 0.14 |
| AAGUAGCAAUAUUACGCGGA | -2.09 ± 0.18 | -1.04 ± 0.15 |
| AUAAAGCAAUAUUACGACAU | 0.424 ± 0.012 | 0.344 ± 0.032 |
| ACAGAGCAAUAUUACGCAUG | -2.9 ± 0.12 | -1.95 ± 0.13 |
| AGUUAGCAAUAUUACGGUUG | -3.09 ± 0.24 | -1.99 ± 0.22 |
| CGGUAGCAAUAUUACGCAAG | -1.94 ± 0.11 | -1.02 ± 0.12 |

| Sequence | self-splicing fitness (ln) (30 °C) | self-splicing fitness (ln) (37 °C) |
| --- | --- | --- |
| UCUGAGCAAUAUUACGGUAA | -2.84 ± 0.33 | -2.24 ± 0.3 |
| CUCAAGCAAUAUUACGCGAA | – | -1.79 ± 0.22 |
| UAAGAGCAAUAUUACGAGCC | -3.56 ± 0.25 | -2.26 ± 0.24 |
| CCGUAGCAAUAUUACGUGCG | -2.39 ± 0.11 | -1.68 ± 0.12 |
| UUGAAGCAAUAUUACGACCC | -3.15 ± 0.28 | -0.772 ± 0.17 |
| GGCUAGCAAUAUUACGAAUG | -2.26 ± 0.14 | -1.01 ± 0.14 |
| AUUGAGCAAUAUUACGGGCA | -2.81 ± 0.23 | -2.3 ± 0.29 |
| CGACAGCAAUAUUACGCGAU | -2.8 ± 0.22 | -2.46 ± 0.28 |
| GACUAGCAAUAUUACGGAAA | -1.53 ± 0.14 | -0.989 ± 0.14 |
| CAAAAGCAAUAUUACGAAAG | -0.791 ± 0.077 | -0.705 ± 0.097 |
| CCUGAGCAAUAUUACGUUCU | -3.63 ± 0.25 | -2.43 ± 0.25 |
| ACCGAGCAAUAUUACGACCA | – | -0.694 ± 0.33 |
| GGAGAGCAAUAUUACGUAAU | – | -0.814 ± 0.2 |
| GUCAAGCAAUAUUACGGUUU | -2.48 ± 0.075 | -1.44 ± 0.077 |
| UACGAGCAAUAUUACGAUAC | -3.5 ± 0.19 | -1.61 ± 0.13 |
| ACGAAGCAAUAUUACGGGAA | -3.09 ± 0.19 | -1.31 ± 0.13 |
| GCCGAGCAAUAUUACGGCCG | – | -1.7 ± 0.47 |
| CUCUAGCAAUAUUACGCACG | -2.45 ± 0.17 | -1.95 ± 0.23 |
| CCAAAGCAAUAUUACGAACC | -3.78 ± 0.47 | -1.5 ± 0.34 |
| GUUGAGCAAUAUUACGUUAA | -2.83 ± 0.38 | -2.34 ± 0.25 |
| GCGGAGCAAUAUUACGGGUA | -4.43 ± 0.42 | -1.72 ± 0.2 |
| AGUUAGCAAUAUUACGUCUA | -0.594 ± 0.12 | -0.0617 ± 0.1 |
| CCUAAGCAAUAUUACGGCAA | -3.72 ± 0.21 | -2.91 ± 0.23 |
| UUCCAGCAAUAUUACGGCCA | -1.08 ± 0.13 | 0.682 ± 0.16 |
| CCGGAGCAAUAUUACGAUUC | – | -2.85 ± 0.38 |

| Sequence | self-splicing fitness (ln) (30 °C) | self-splicing fitness (ln) (37 °C) |
| --- | --- | --- |
| UAGAAGCAAUAUUACGUGUC | -3.27 ± 0.22 | -2.31 ± 0.23 |
| GUUUAGCAAUAUUACGAAGC | – | -1.3 ± 0.31 |
| CCAGAGCAAUAUUACGCACU | -2.9 ± 0.25 | – |
| GGGUAGCAAUAUUACGAUCU | -1.64 ± 0.092 | -0.576 ± 0.11 |
| GCUAAGCAAUAUUACGGUCU | -0.772 ± 0.083 | -1.06 ± 0.085 |
| GUGCAGCAAUAUUACGCCUU | -1.26 ± 0.16 | -0.215 ± 0.14 |
| CGGAAGCAAUAUUACGAAUA | -2.53 ± 0.39 | – |
| GAUCAGCAAUAUUACGCUUG | -1.02 ± 0.095 | 0.188 ± 0.12 |
| CGGGAGCAAUAUUACGAGAU | – | -2.17 ± 0.35 |
| AUCCAGCAAUAUUACGGUGA | -1.55 ± 0.096 | -1.17 ± 0.11 |
| UUAAAGCAAUAUUACGCUAG | -0.313 ± 0.092 | 0.141 ± 0.11 |
| UGUUAGCAAUAUUACGCGAU | -3.44 ± 0.47 | -1.9 ± 0.4 |
| UUAGAGCAAUAUUACGGUCU | -3.05 ± 0.41 | -2.66 ± 0.48 |
| CCACAGCAAUAUUACGUGCA | -4.24 ± 0.24 | -2.5 ± 0.12 |
| CGUGAGCAAUAUUACGAUUG | -0.949 ± 0.09 | -0.662 ± 0.13 |
| AAACAGCAAUAUUACGAGAU | -3.64 ± 0.2 | -2 ± 0.15 |
| UGUUAGCAAUAUUACGGGUC | -2.97 ± 0.44 | -1.53 ± 0.3 |
| ACCGAGCAAUAUUACGAUAC | -4.32 ± 0.36 | -2.09 ± 0.27 |
| CGUCAGCAAUAUUACGCAUU | -3.62 ± 0.16 | -2.31 ± 0.16 |
| CUAUAGCAAUAUUACGAAGU | -3.32 ± 0.25 | -1.93 ± 0.28 |
| GCCUAGCAAUAUUACGUUAA | -1.86 ± 0.13 | -1.28 ± 0.13 |
| GAGAAGCAAUAUUACGAAAC | -2.29 ± 0.36 | -1.71 ± 0.48 |
| UAUAAGCAAUAUUACGUGUA | -1.48 ± 0.1 | -0.896 ± 0.1 |
